Test in all cases: IP-MS (HA-IP, label-free LC/MS-MS)
In test [1] the target is PSMD12. Conditions: HA-tagged Hop exogenously overexpressed in KO1 cells; n = 2; left graph; read off a plot.
Test [2] deals with HSPA4. Conditions: HA-tagged Hop exogenously overexpressed in KO1 cells; n = 2; read off a plot.
Test [3] concerns the target AHSA1. The note with it: HA-tagged Hop exogenously overexpressed in KO1 cells; n = 2; read off a plot.
Test [4] addresses HUWE1. The note with it: HA-tagged Hop exogenously overexpressed in KO1 cells; n = 2; right graph; read off a plot.
Test [5] addresses PSMC2. The note with it: HA-tagged Hop exogenously overexpressed in KO1 cells; n = 2; left graph; read off a plot.
Test [6] has as its target USP5. Conditions: HA-tagged Hop exogenously overexpressed in KO1 cells; n = 2; right graph; read off a plot.
For test [7], the target named is USP7. The note with it: HA-tagged Hop exogenously overexpressed in KO1 cells; n = 2; right graph; read off a plot.
Test [8] has as its target DNAJA1. The note with it: HA-tagged Hop exogenously overexpressed in KO1 cells; n = 2; read off a plot.
Test [9] has as its target PSMD11. Conditions: HA-tagged Hop exogenously overexpressed in KO1 cells; n = 2; left graph; read off a plot.
The target of test [10] is PSMC3. The note with it: HA-tagged Hop exogenously overexpressed in KO1 cells; n = 2; left graph; read off a plot.
Test [11] has as its target USP10. The note with it: HA-tagged Hop exogenously overexpressed in KO1 cells; n = 2; right graph; read off a plot.
The target of test [12] is PSMC1. The note with it: HA-tagged Hop exogenously overexpressed in KO1 cells; n = 2; left graph; read off a plot.
Test [13] addresses UBA1. Conditions: HA-tagged Hop exogenously overexpressed in KO1 cells; n = 2; right graph; read off a plot.
Test [14] concerns the target DNAJA2. The note with it: HA-tagged Hop exogenously overexpressed in KO1 cells; n = 2; read off a plot.
Test [15] deals with CDC37. The note with it: HA-tagged Hop exogenously overexpressed in KO1 cells; n = 2; read off a plot.
Test [16] deals with HSPA6;HSPA7. Conditions: HA-tagged Hop exogenously overexpressed in KO1 cells; n = 2; read off a plot.
For test [17], the target named is HSPA4L. Conditions: HA-tagged Hop exogenously overexpressed in KO1 cells; n = 2; read off a plot.
Test [18] has as its target HSPA5. Conditions: HA-tagged Hop exogenously overexpressed in KO1 cells; n = 2; read off a plot.
Test [19] concerns the target PSMC4. The note with it: HA-tagged Hop exogenously overexpressed in KO1 cells; n = 2; left graph; read off a plot.
In test [20] the target is PSMC5. Conditions: HA-tagged Hop exogenously overexpressed in KO1 cells; n = 2; left graph; read off a plot.
The target in test [21] is HSPH1. The note with it: HA-tagged Hop exogenously overexpressed in KO1 cells; n = 2; read off a plot.
The target in test [22] is PSMD3. The note with it: HA-tagged Hop exogenously overexpressed in KO1 cells; n = 2; left graph; read off a plot.
Test [23] deals with PSMD13. Conditions: HA-tagged Hop exogenously overexpressed in KO1 cells; n = 2; left graph; read off a plot.
In test [24] the target is UBE2N;UBE2NL. Conditions: HA-tagged Hop exogenously overexpressed in KO1 cells; n = 2; right graph; read off a plot.

We go through 1 substance from paper PMC7688965.

Consider “HA-tagged WT Hop (from UniProt P31948) K8A; K229A”, for which the other: normalized enrichment (log2) WT Hop / K8A,K229A Hop in test [1] was found to be 3.1 log2; in [2], 1.7 log2; in test [3], 3 log2; in [4], 2.7 log2; in test [5], 0.65 log2; in test [6] it was 2.3 log2. Moreover, the other: normalized enrichment (log2) WT Hop / K8A,K229A Hop in test [7] came out at 2.9 log2; in test [8], 3.9 log2; in test [9], 1.7 log2; in [10], 1 log2; in test [11], 2.5 log2; in test [12] it was 0.95 log2. Further, the other: normalized enrichment (log2) WT Hop / K8A,K229A Hop in [13] came to 0.85 log2; in test [14], 4.3 log2; in [15] it was 3.2 log2; in test [16], 4.5 log2; in test [17], 3 log2; in [18], 2.5 log2. Further, the other: normalized enrichment (log2) WT Hop / K8A,K229A Hop in [19] is 0.25 log2; in test [20] it was 1.3 log2; in test [21] it was 4 log2; in [22], 1.5 log2; in test [23], 2.1 log2; in [24], 0.8 log2.
